The data set can be described thus: soluble on expression in E. coli; label from the status in PepcDB or PDB records.
In the case of “MGSDKIHHHHHHVACKPKEKPSSATSLTDDALMDTVQRRTFNYFWDAAEPNSGLARERYHMDGEYPAGGPEIVTSGGSGFGIMAILAGIDRGYVSREEGLRRMEKIVGFLEKADRFKGAYPHWWNGETGHVQPFGQKDNGGDLVETAFLMQGLLAVHQYYAEGSAEEKKLAGRIDKLWREVDWNWYRHGGQNVLYWHWSPEYGWEMNFPVHGYNECLIMYILAAASPTHGVPAAVYHEGWAQNGAIVSPHKVEGIELHLRYQGGEAGPLFWAQYSFLGLDPVGLKDEYCPSYFNEMRNLTLVNREYCIRNPKHYKGYGPDCWGLTASYSVDGYAAHGPLERDDRGVISPTAALSSIVYTPDQSLQVMHHLYEMGDKVFGPYGFYDAFSETADWYPKRYLAIDQGPIAVMIENYRTGLLWKLFMSHPDVQNGLKKLGFNVKK”, the “soluble on expression in E. coli” value was “not soluble”. Then “MGSDKIHHHHHHVAELVFFSGTMDCGKSTLALQMDHNHRARGRGGVRFSRNDRAGGARISSRLGLETDCVEVLDTTDFWDEVIERRTRGLRVDYLICDEAQFYSPLQVEQLARIVDEIDVDVFAFGISADFRTRLFPGSQRLIELADRVQVLQVEALCWCGRRATHNARTVDGVMVTEGAQVVVGDVDMAGDPASASADHAPVVGYETLCRRHFMRRVTAHGANVMAQQDQLLPFEVDACLWHGSGETRHS”, with “not soluble”. As for “MGSDKIHHHHHHVAKQKFKITNWPTYNKALINRGSITFWLDDEAIQAWYESATPSSRGRPQRYSDLAITTVLVIKRVFRLTLRAAQGFIDSIFTLMNVPLRCPDYTSVSRRAKSVNVSFKTFTRGEIAHLVIDSTGLKVFGEGEWKVKKHGQERRRIWRKLHLAVDSNTHEIICADLSLNNVTDSEAFPGLIRQTHRKIRAAAADGAYDTRLCHDELRRKKISALIPPRKGAGYWPGEYADRNRAVANQRMTGSNARWKWTTDYNRRSIAETAMYRVKQLFGGSLTLRDYDGQVAEAMALVRALNKMTKAGMPESVRIA”, the “soluble on expression in E. coli” value was “not soluble”. Turning to “MGSDKIHHHHHHVDALEVHRFLKGKIRTALPVEKVDRETLSLLYTPGVADVARACAEDPEKTYVYTSRWNTVAVVSDGSAVLGLGNIGPYGALPVMEGKAFLFKAFADIDAFPICLSESEEEKIISIVKSLEPSFGGINLEDIGAPKCFRILQRLSEEMNIPVFHDDQQGTAVVVSAAFLNALKLTEKKIEEVKVVVNGIGAAGYNIVKFLLDLGVKNVVAVDRKGILNENDPETCLNEYHLEIARITNPERLSGDLETALEGADFFIGVSRGNILKPEWIKKMSRKPVIFALANPVPEIDPELAREAGAFIVATGRSDHPNQVNNLLAFPGIMKGAVEKRSKITKNMLLSAVEAIARSCEPEPERIIPEAFDMKVHLNVYTAVKGSA”, the “soluble on expression in E. coli” value is on record as “soluble”. On to “MGSDKIHHHHHHVLNFDYDLQSVQETRNLARQAKQAQTELAQFNSEQIDKIIRNMVKVAEENAVALAKLAVEETGFGKVEDKVFKNRFASTELYQFIKPMQTIGVIKEDKINKVMEIAEPVGLLMGIVPSTNPTSTTIYKSLIAIKARNGIVFSPHPSALKCTLEAAKLMNDAAVAAGAPANIIGCISKPSMNATNELMKCDEVAMIIATGGSAMVKAAYSAGKPALGVGPGNVPAYIERTADIPKAVRNIIASKTFDNGTICASEQSVVVEECIRNQVMEEFKRQGGYFMTPEETEQVGRKLFNRGHAMNAKMVGRSAADIAAGAGISIPPGTKVLLGEQQGVGEQYPLSYEKLTTVLAFYTVKDWHEACDLCMKLLNNGGVGHSLSIHTENPEMAIKFAEKPVFRILVNTASTHGGVGVSTGLAPAFTLGCGTWGGSATSDNVTPMHLINIKRVAYGIKDVTENGNSSYATGDAQQGGSGGTVSEDRIQALVNEVMSLLKQRGDC”, for which the “soluble on expression in E. coli” value is “not soluble”. Take “MGSDKIHHHHHHVLVLVLFTTVDRTPYKQMPYYTSMMKALDTFHVDVQHKKGDTLRAAWYKVALTPHTFPHPLAGYGLRKKAVSVNDTTFVRTFIFDNAKTRVAYVSLDLLIFPPALKDRVRAELETTYNLQVFLTATHTHSAPGGWEPKIAGRVLAGEYSDEYVALLFNAINECISKAIPRLQKVEQAYIRVSAPEAVQNRLKGADAPKDSFIRGIKFRNKSGEEACLFTFAAHANCLNSDVDYVSADYPGIVSAELEKRKWASFVSYAAGAVGSHAPTFETILDGKLRADTVSSILVEKLQETKAAYAYTNQLYYHRLPLFLRDAHLRVEKDIRIRPWVFNTILGKDIPDIQIIEIGETVLLGMPCDYSGELMPPLEKICADNQSNFMLSGFNGGYIGYITDDACYDWDRGETMDMNWFGPYNAAYLTEVNTVILKKVLTGE”: the “soluble on expression in E. coli” value is given as “not soluble”. Then “MGSDKIHHHHHHVNAIQVPDAPVVLSTASVYPEKTPAAFEIAAELGYDGIEVMVTADPVSQDIDMLRRLSEYHQIPITAIHAPCLIFTQRVWGRDPWIKLIKSKEMAEALGATTVVVHPAFKWQREYAREFESGILKMRDETDVIFAVENMYQVRMRGKEVVPYAPSWNPLDRDYPNVTLDLSHTAMSQSDAMDMARQLGDRLSHVHLADGVGGQNFDEHLIPGRGNQPCAELLEHLANNDYRGQIVLEVNTRKSDRETRLTELAEALAFTRLHFARSVPPEPRSEQPEREQIVVRSVPAPALRVFSVHSDGTVSTD”, with “not soluble”; and “MGSDKIHHHHHHVQQSQIMEDKIISAVRTFASSINSGGKVVADMSELIEVTSQLPLSSFDYWERFIRSEFSTALRESNSPKWKVWSKPKELVTWLDLISWDGYKREKALRALSGAAPNTFFFSLAVRRLNDWVPQVRKAAREKLPEIAKSTVPECVVDALCVALSNWNSWGRIEDADKEVLLKILCEKEIAKSLRSKLIFSASGPMPSLFSQLGRTPILDGQIEEIAKSAIQPSVRAKAYRSLFEGRVIWIEGRKWVWTDIRYCEGRLKPIVGERKLEIETPLIDLLKRSSEDRSSIVRRVSAEILIRELGNLGVKAKEFAERFALDSSQAVSERGDFALKKLDEAERANAS”, with “not soluble”; and “MGSDKIHHHHHHVQYLDKLVSGLAVELHVPEGDYEGNYKTHVDEIGKTRLSVYAPHYQGMIIPLQEGTLVEVTFWDDVASYSFMSSVLQRVATPIPMFVLKMPDSIRRVQRRNYVRVSASFPITYQVVEREGLGDLLKGNMLDLSGGGMRFQAKVKLDKGSILYANLELPCGIIGTPGRVCRVEPIEDTKYFSVSVDFYQISERDRDRIIRCVFDIQRDLRKKGLI”, with “not soluble”. The same measure for “MGSDKIHHHHHHVRIAILSQGPQLYSTKRLVEAALARGHEVKVINPLKCYMNINMTKPSIHMAGKDLGHFDAVIPRIGASVTFYGSAVLRQFEMMGVYAVNGSIGIARSRDKLRSMQLLSRQGIGLPITGFANKPSDIPDLIDMVGGAPLVVKLLEGTQGIGVVLAETRKAAESVLEAFMGLKANIMVQEYIAEAQGADIRCFVLGDKVIAAMKRQAKPGEFRSNLHRGGSATLVKLTPEERSVALRAAKTMGLNIAGVDLLRSNHGPVVMEVNSSPGLEGIEKATQKDVADAIICFMEKNANKSIKSAQ”: “not soluble”; for “MGSDKIHHHHHHVSGAILSGPEQKPDQDDIETALFRHLAQQGWCLSAPTPLAGGRSNHVWRAGDKVVKLYRSDAHNPLFANDPDRERAMLRALSGTGMAPRFLAHGLWQGQAWLMYTHVCGARWESDPSHVARILSIVHDQAKPRGLPFGCNGSEALAQQTRQIVSAASQGTTLLDRAPQGVVPPTSQLCLIHGDPVPGNIVAHNGTLALIDWQCPQLGDPAEDLALFLSPAMQLAYRGRVLSRQEEAEFVTAYPHPRVVARYYALKPWFHWRMAAYCAWRGETDARDLELAEI”: “not soluble”; for “MGSDKIHHHHHHVSGPGLLPFRLTICGIDELPDHAAAGVSHVVTILDPQWPDPEHFALYPPHSRTIWRFHDIVNPQEGQAHPTMRDVEAILDYGTALKTETVEHLLIHCHMGISRSTATAIILMAQHNPGREAEAFTHLKAIRPFSWPNSRMVRMADDQLKRKGALVDAMRLHHHGVARRHPDKMAYLRTSERAAEVPPEE”: “not soluble”. Then “MGSDKIHHHHHHVSQLTPWQHYQQDLTRDDFSHDAAQEQAVKSLQRVYDELIVAAKPASSVSKLFSAIGIKSTPTPVKGLYLWGGVGRGKTYLMDTFFDALPTDRKLRAHFHRFMHQIHNDLGELKGVQDPLLTIAKKMASQYQIICFDEFFVSDITDAMLLGTLFQALFKEGVALVATSNIIPDELYKNGLQRVRFLPAIALINQHCEILNVDSGIDYRLRTLEQAEIYHYPLDEQADINLLHYFDQLAPESEKLTAPIDVDGRAIRIRQQSQGVLLINFRDLCDGPRSQRDYMEMACLYHTVLVSGLEQMGSQQTGDDIARRFLAMVDEFYERNVKLIISAQVELEHIYTDGQLNFEFRRCRSRLIEMQSREYLALEHLP”, with “not soluble”; and “MGSDKIHHHHHHVSSTIWTPTAVASEAAAIRFSLWRAVEGQHAVSTMVLVDSLEEQALLEQLLEGSKPPVPASANGLHWLLFTPFRYPPPPTGSRFRGPLDPGVFYGADEIETACAELGFWRWQFLMESPSLTALDPKPQTVFKVEVDTLTVDLRSPPFTESRALWIDPKSYAATQDLARSAREANIGAIRYESVRAPNRGGCGAILTPMAFAEPQPRDAQTWWLSVSRERVLWQRDDVLQRATFAFDTKAFCE”, with “not soluble”. As to “MGSDKIHHHHHHVSTAVSTPPTRLQCPICGSERFGDFRSRVNVRCSGCGSFERSRLLWLVLSQLELEATGRPFFHVAPEIGIAKLLHARLGERYRAFDFSPDIYAKAKIPVGRLDLCSDLSGMATGSVGGFCHVHVLEHVRCNAALVLQQINRVLAPGGYHVFGVPFWSRQYREDLSSELTDADRLSRFGHEDHVRSFGDQDFTVMFGGAFEGMEAIPLSRLIEVEAAARCNIPPRALTLNNSHSLFVYRKPIP”, the “soluble on expression in E. coli” value is given as “not soluble”. Turning to “MGSDKIHHHHHHVYRKIKAQDLRPGMYVVDVGLSWLENPYLYMTEGVLADEEAVGRVLSEGYEEAVIDLRRCLEGSVPDDLAELEPLTDAEHVSRAVSATADSPVSAVAQRVPVAQEMLAAKAIYSESITFVRGFMEGAREGRPVDLKAAEPLVEDIIQSVSRNAGALIGFAKLRAYDLYTYTHSLNVSLLAVAFGKYLGLDTVALRQIGLAGLFHDLGKALIPDFILNCPGRLTPEEFSVMKRHPVLGRDVLPGGGRIPDMVLEGMLQHHEKFNGTGYPAGLKGDAISEAGRIIAVVDVYDALTSKRPYKNAMLPNKALSILYSMAGEEFYPGYVEHFIKCIGIYPVGQIVRLNTGQVGVVSATDPAVPLRPEVIVVRDPLGRPAPPRLIRLADVISVSVTETLEAAHAGIDAARVLQDGAAS”, the “soluble on expression in E. coli” value is “not soluble”. “MGSDKIHHHHHHYATPEEYYKATGKKITEYHESPMLTKLVEEGKLPPVEQRLPEEPLVVQPVEKVGQFGGTWRRVWKGPSDRWGISKLIEVKLAFWDKEGGKLVPGLAKSWEVLENGRVYIFHLRKGVKWSDGAPYTAHDIVFWVNDIVGNDDITPSKPDWYNIGVKVEALDDYTVKFEFSKPYGLFLLKVPYGGFTGAPAHYLKQFHPKYTPMEEIEKKMVEGVHNTWVDLFNDKNDFLENTELPTLSPWKPITDPTEQFYILERNPYFWAVDIEGNQLPYIDYVRHEYVKNDEVILLKAISGEIDMQWRHIGGLGAGAGNFTLLMENSQSGGYRVLKWIAANGSASRISLNYAHSDEVLRKVFNDVRFRQALSLAINREEINEILFNGLAEPRQASLVSGSPYFDPEWEKAYAEYDPDRANKLLDEMGLKWDDKHEYRLLPDGRPLRFTITVTGQFHVDVWTMVKEYWKQIGVWVEIENLERSLFYERADAGDFDAMVWNMDRAAQPLSSPMVIFPGSENIADFWYIGWSGWISYYIDKNIRGVEPEEVPEGPEPPEVVYRLVDLYYQIASTPDPDKIKELMAEATKIHRENLWMIGTVGEDLSPAIAKNNFRNVPEFLVTDDVLRTPLNAMPMQFFIEQK”: the “soluble on expression in E. coli” value is “not soluble”. Then “MGSDKIHHHHHHYKDLSQLKSEVDRLCRLCPWDWTFFNGNCYFFSKSQRDWHDSMTACKEMGAQLVIIKSHEEQSFLQQTSKKNSYTWMGLSDLNKEGEWYWLDGSPLSDSFEKYWKKGQPNNVGGQDCVEFRDNGWNDAKCEQRKFWICKKIATTCLS”, with “not soluble”.

For the origin of these results see the DeepSol protein solubility set.
